Columns and labels:
[1] = biological target: biotinylated human IL-1RI (human) (UniProt P14778); assay: IGEN (ECL) competition, inhibition of IL-1 signaling complex formation; details: ligand
[2] = biological target: biotinylated human IL-1RI (human) (UniProt P14778); assay: IGEN (ECL) competition, inhibition of IL-1 signaling complex formation; concentrated stock; details: ligand

Sequence of biotinylated human IL-1RI (human) (P14778 18-336): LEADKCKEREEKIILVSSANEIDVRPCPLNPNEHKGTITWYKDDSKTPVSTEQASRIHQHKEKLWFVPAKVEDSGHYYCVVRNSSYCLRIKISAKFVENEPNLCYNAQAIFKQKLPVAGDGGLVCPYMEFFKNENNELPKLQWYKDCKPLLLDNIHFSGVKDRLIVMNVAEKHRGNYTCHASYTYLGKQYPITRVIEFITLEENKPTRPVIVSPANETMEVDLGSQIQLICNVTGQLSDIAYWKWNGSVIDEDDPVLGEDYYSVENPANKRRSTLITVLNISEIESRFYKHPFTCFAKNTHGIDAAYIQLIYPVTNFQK

IL-1ra K93A mutant protein (from UniProt P18510 26-177)
EC50 [1]: 0.562 nM | EC50 [2]: 0.873 nM
